Common to all, as to assay: cell_activity
Data set [1] deals with TALEN 1R2 (TAPBP exon 2 right arm) (synthetic construct). The conditions noted are these: as pair 1L2*1R2 in hESCs, puromycin selection; SEQ 28 in the listing is printed reversed.
Data set [2] relates to TALEN 1L2 (TAPBP exon 2 left arm) (synthetic construct). The conditions noted are these: as pair 1L2*1R2 in hESCs, puromycin selection; one or two alleles.
Data set [3] relates to TALEN 2R1 (TAP1 exon 1 right arm) (synthetic construct). The conditions noted are these: as pair 2L3*2R1 in hESCs, puromycin selection; SEQ 24 in the listing is printed reversed.
The test system of data set [4] is TALEN 2L3 (TAP1 exon 1 left arm) (synthetic construct). The note with it: as pair 2L3*2R1 in hESCs, puromycin selection; one or two alleles.

The results in this text go back to patent US20180250335.

Sequence “CTCTTGGCCAGGCCCTTT (double strand) [TAPBP exon 2 right half-site]” showed an activity (% clones targeted) in data set [1] of 33.3.

As for “GATCGAGTGTTGGTT (double strand) [TAPBP exon 2 left half-site]”, the activity (% clones targeted) in data set [2] stood at 33.3. Regarding “GGCAAGTCCCGGCAGGG (double strand) [TAP1 exon 1 right half-site]”, in data set [3], the activity (% clones targeted) was 27.1. Sequence “TGAAGCCATTAGCTG (double strand) [TAP1 exon 1 left half-site]” gave an activity (% clones targeted) in data set [4] of 27.1.
